Reference: patent publication US20090325867A1, “RECEPTOR-SPECIFIC TUMOUR NECROSIS FACTOR-RELATED APOPTOSIS-INDUCING LIGAND (TRAIL) VARIANTS” (MEDICAL RESEARCH COUNCIL, priority 2005, published 2009)

Tests used:
[1] = test system: TRAIL DISC in Jurkat cells; assay: DISC analysis with biotinylated TRAIL in Jurkat cells; format: cell-based; settings: biotinylated ligand 500 ng ml^−1, 30 min
Protocol: (§1) After exposure of the cells for 30 min, DISC complexes were isolated and analyzed for the indicated proteins by Western blotting. To provide an unstimulated receptor control (u/s), biotinylated wt or mutant TRAIL was added to lysate from untreated cells. C: Freshly isolated cells from patients with CLL were incubated for 16 h either alone or in the presence of depsipeptide (10 nM). […] The different symbols used indicate data from six individual patients and the solid line indicates the Mean.
(§2) Ramos or Jurkat cells (5×10^7 cells per treatment) were exposed to biotin-tagged recombinant His-TRAIL (biotinylated TRAIL) or one of its mutant forms (500 ng ml^−1) for 30 min and then DISC formation assessed as described previously (MacFarlane et al., 2002 ibid.).

[2] = test system: TRAIL DISC in Ramos cells; assay: DISC analysis with biotinylated TRAIL in Ramos cells; format: cell-based; settings: biotinylated ligand 500 ng ml^−1, 30 min
Protocol: as §1, §2

B1: TRAIL.R1-5: 6His TRAIL 95-281 with 193Ser, 199Val, 201Arg, 213Trp and 215Asp (protein)
chain: TSEETISTVQEKQQNISPLVRERGPQRVAAHITGTRGRSNTLSSPNSKNEKALGRKINSWESSRSGHSFLSNLHLRNGELVIHEKGFYYIYSQTYFRFSEEIKEVTRNDKQMVQYIYKWTDYPDPILLMKSARNSCWSKDAEYGLYSIYQGGIFELKENDRIFVSVTNEHLIDMDHEASFFGAFLVG
modifications: biotin (site not stated) in the DISC analysis only; not biotinylated in the apoptosis assays
notes: 6His TRAIL 95-281 with 193Ser, 199Val, 201Arg, 213Trp and 215Asp
Q: For B1, which “DISC formation: receptor bound, FADD and caspase-8 recruitment” value [1] is on record?
A: bound small amounts of both TRAIL-R1 and -R2

Q: And the “DISC formation: receptor bound, FADD and caspase-8 recruitment” value [2]?
A: bound predominantly TRAIL-R1 together with a small amount of TRAIL-R2
